{"source": "paper doi:10.1101/2022.06.09.495492", "about": "(2022)", "binders": {"B1": {"name": "GST-Tvactin (natural protein)", "chain": "not shown"}}, "key": {"His-△237 [1]": {"biological_target": "His-△237 (T. vaginalis)", "assay": "ELISA; F-actin"}, "His-△237 [2]": {"biological_target": "His-△237 (T. vaginalis)", "assay": "ELISA; G-actin"}}, "data": [{"binder": "B1", "values": [{"measurement": "Kd", "setting": "His-△237 [1]", "value": 10.3, "unit": "µM"}, {"measurement": "Kd", "setting": "His-△237 [2]", "value": 9.01, "unit": "µM"}]}]}
